Test results as given in patent publication US20220411517A1 (LEO PHARMA A S, published 2022).

T1: human IL1RAcP domain 1 (AG-12335) (human)
T1 construct: also called domain 1 of human IL-1RAcP
T1 chain: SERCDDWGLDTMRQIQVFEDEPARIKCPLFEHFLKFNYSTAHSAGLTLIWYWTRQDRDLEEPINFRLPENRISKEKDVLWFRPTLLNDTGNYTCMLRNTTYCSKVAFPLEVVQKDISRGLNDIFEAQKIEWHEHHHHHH

T2: human IL1RAcP domain 3 (AG-12127) (human)
T2 construct: also called domain 3 of human IL-1RAcP
T2 chain: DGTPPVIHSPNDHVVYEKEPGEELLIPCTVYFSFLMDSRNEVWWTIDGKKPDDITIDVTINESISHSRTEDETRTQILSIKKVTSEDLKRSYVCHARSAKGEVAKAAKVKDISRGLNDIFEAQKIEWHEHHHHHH


Experiments:
[1] = target: T3, hIL-1RAP(1-367)_F-chLys_Avi (human, biotinylated (Avi tag) in SPR and ELISA binning; unlabeled in SET); assay: SPR (Biacore), biotinylated antigen captured, FabCys-AviHis as analyte, 1:1 fit
T3 construct: also called human IL-1RAcP (AG-12210)
Experimental: (§1) Approximately 3000 RU capture reagent was bound. This surface was used to load biotinylated antigen to generate a low-density surface for subsequent kinetic characterization (approx. 60-100 RU antigen loaded). […] After injecting the last and highest analyte concentration, a long dissociation phase was recorded. […] A blank injection of assay buffer (HBS-EP+) following the same injection pattern as described above was recorded and subtracted from specific sensorgrams during analysis (double referencing). At the end of each cycle, the sensor was regenerated with one 120 s injection of 6 M guanidine hydrochloride in 250 mM NaOH, which completely removed capture reagent with loaded biotinylated antigen and bound Fab fragments. The obtained sensorgrams were fitted to a monovalent binding model using Biacore Insight Evaluation Software. The obtained values for rate constants kₒₙ and koff were used to calculate KD.

[2] = target: T4, cyIL-1RAP(1-367)_F-chLys_Avi (cynomolgus, biotinylated (Avi tag) in SPR; unlabeled in SET); assay: as above
T4 construct: cynomolgus IL-1RAcP (21-367) is UniProt A0A2K5X5J5; also called cynomolgus IL-1RAcP (AG-12211)
Experimental: as §1

[3] = target: T3, hIL-1RAP(1-367)_F-chLys_Avi; assay: ELISA binning; competitor: coated CAN04 FabCys-AviHis; 1.5 nM biotinylated human IL-1RAcP (AG-12210) pre-incubated with the titrated Fab; captured IL-1RAcP detected with streptavidin-AP
Experimental: (§2) Epitope binning was performed using an ELISA-based competition assay. The experiments were performed using either IgG1f_AEASS or FabCys-AviHis. Antibodies were diluted to three (3) nM (for IgGs) or to 20 nM (in case of Fabs) in PBS. […] The next day 90 μL/well blocking solution (5% BSA in PBS) was added to the plate followed by an incubation at RT for at least 1 h. During incubation, the competing antibodies, including reference and negative control antibodies, were diluted in assay buffer (1xPBS, 0.5% BSA, 0.02% Tween). […] Following the incubation of the blocking solution, the ELISA plates were washed 3× with PBST. Subsequently, 20 μl/well of the prepared antibody/antigen solution was transferred to the wells and incubated for 30 min with gentle agitation. Subsequently, plates were washed 3× using PBS-T.
(§3) For detection 20 μl of a prepared streptavidin-alkaline phosphatase conjugate solution was added to the wells in order to detect bound biotinylated human IL-1RAcP. Incubation happened for 30 min with gentle agitation. Following the incubation with streptavidin-alkaline phosphatase conjugate, assay plates were washed 5× with PBS-T. Then 20 μl of AttoPhos substrate (diluted 1:5 in H₂O) was added to the wells. Plates were incubated for 10 min at RT and readout happened using a Tecan M1000 Pro Reader.
(§4) Every graph represents an individual first antibody in the FabCys-AviHis format coated on the surface. […] Subsequently, preformed antigen antibody complex was added to the respective wells with the surface coated first antibody. Detection happened via the biotin of IL-1RAcP using a streptavidin-alkaline phosphatase conjugate.

[4] = target: T3, hIL-1RAP(1-367)_F-chLys_Avi; assay: ELISA binning; competitor: coated Y024148 FabCys-AviHis; 1.5 nM biotinylated human IL-1RAcP (AG-12210) pre-incubated with the titrated Fab; captured IL-1RAcP detected with streptavidin-AP
Experimental: as §2
For detection 20 μl of a prepared streptavidin-alkaline phosphatase conjugate solution was added to the wells in order to detect bound biotinylated human IL-1RAcP. Incubation happened for 30 min with gentle agitation. Following the incubation with streptavidin-alkaline phosphatase conjugate, assay plates were washed 5× with PBS-T. Then 20 μl of AttoPhos substrate (diluted 1:5 in H₂O) was added to the wells. Plates were incubated for 10 min at RT and readout happened using a Tecan M1000 Pro Reader. […]

[5] = target: T3, hIL-1RAP(1-367)_F-chLys_Avi; assay: ELISA binning; competitor: coated Y024149 FabCys-AviHis (sheet title Y024149_FAB COATED); 1.5 nM biotinylated human IL-1RAcP (AG-12210) pre-incubated with the titrated Fab; captured IL-1RAcP detected with streptavidin-AP
Experimental: as §2, §3, §4

[6] = target: T3, hIL-1RAP(1-367)_F-chLys_Avi; assay: ELISA binning; competitor: coated Y024084 FabCys-AviHis (sheet title Y024084_FAB COATED); 1.5 nM biotinylated human IL-1RAcP (AG-12210) pre-incubated with the titrated Fab; captured IL-1RAcP detected with streptavidin-AP
Experimental: as §2, §3, §4

[7] = target: human IL-1RAcP on cells (human, UniProt Q9NPH3 21-570); assay: cell-based or functional assay
[8] = target: cynomolgus IL-1RAcP on cells (cynomolgus, UniProt A0A2K5X5J5 21-570); assay: cell-based or functional assay
[9] = target: T3, hIL-1RAP(1-367)_F-chLys_Avi; assay: solution equilibrium titration (SET), ECL read-out, IgG
Experimental: (§5) MSD SulfoTAG™ NHS-Ester (Meso Scale Diagnostics) according to the manufacturer's instructions. […] Serial dilutions of unlabeled antigen were prepared, starting with a concentration at least 10 times higher than the expected KD. Wells without antigen were used to determine Bₘₐₓ values;
(§6) wells containing only assay buffer were used to determine background. […] MSD plates were coated with antigen on standard plates (30 μL per well). After washing the plate with PBS with 0.05% Tween 20, the equilibrated samples were transferred to the plates and incubated for 20 min. […] After washing the MSD plate and adding 30 μL/well MSD Read Buffer T with surfactant, electrochemiluminescence signals were detected using a MESO SECTOR S 600 (Meso Scale Diagnostics).
(§7) The data was evaluated with XLfit (IDBS) software applying customized fitting models.

[10] = target: T4, cyIL-1RAP(1-367)_F-chLys_Avi; assay: as above
Experimental: as §5, §6, §7

[11] = target: T1, human IL1RAcP domain 1 (AG-12335); assay: ELISA on directly coated human IL-1RAcP domain 1 (AG-12335), IgG titrated, S/BG
Experimental: All were assessed with direct coating of the antigen. […] An anti-His antibody served as positive control.

[12] = target: T2, human IL1RAcP domain 3 (AG-12127); assay: ELISA on directly coated human IL-1RAcP domain 3 (AG-12127), IgG titrated, S/BG
[13] = target: T5, human IL1RAcP domain 1/2 (AG-12337) (human); assay: ELISA on directly coated human IL-1RAcP domain 1/2 (AG-12337), IgG1f_AEASS titrated, S/BG
T5 construct: also called domain 1/2 of human IL-1RAcP

[14] = target: T3, hIL-1RAP(1-367)_F-chLys_Avi; assay: ELISA on human IL-1RAcP (AG-12210), IgG1f_AEASS titrated 0.007-200 nM, AP-coupled secondary antibody with AttoPhos, signal over background (S/BG)
Text: (§8) Bound antibodies were detected using respective alkaline-phosphatase (AP) coupled secondary antibodies in combination with ‘AttoPhos’ fluorescence substrate. Multiple washing steps have been performed in between individual assay steps.

[15] = target: T4, cyIL-1RAP(1-367)_F-chLys_Avi; assay: ELISA on cynomolgus IL-1RAcP (AG-12211), IgG1f_AEASS titrated 0.007-200 nM, AP-coupled secondary antibody with AttoPhos, signal over background (S/BG)
Text: as §8

[16] = target: recombinant rat IL-1RAcP (rat, UniProt Q63621 21-367, limits assumed); assay: ELISA (FIG. 1-3 cited)
[17] = target: T3, hIL-1RAP(1-367)_F-chLys_Avi; assay: SET, ratio of KD values
[18] = target: T4, cyIL-1RAP(1-367)_F-chLys_Avi; assay: SET, ratio of KD values
[19] = target: T6, mouse (AG-12212) IL-1RAcP (mouse, UniProt Q61730 21-367, limits assumed); assay: ELISA in Fc-capture mode of the IgGs, mouse IL-1RAcP (AG-12212), S/BG
T6 construct: Recombinant tagged antigen; also called recombinant mouse IL-1RAcP; mouse IL-1RAP
Text: as §8

Row | Kd [1] [nM] | Kd [2] [nM] | IC50 (read off the curve) [3] [nM] | IC50 (read off the curve) [5] [nM] | IC50 (read off the curve) [6] [nM] | IC50, IFNγ release, PBMC stimulated with IL-1β [7] [nM] | IC50, IFNγ release, PBMC stimulated with IL-33 [7] [nM] | IC50, IL-8 release, HDFa stimulated with IL-1α [7] [nM] | IC50, IL-8 release, HDFa stimulated with IL-36α [7] [nM] | IC50, IL-8 release, HDFa stimulated with IL-36β [7] [nM] | IC50, IL-8 release, HDFa stimulated with IL-36γ [7] [nM] | IC50, IL-8 release, HEKa stimulated with IL-1β [7] [nM] | IC50, IL-8 release, HEKa stimulated with IL-36β [7] [nM] | IC50, IL-8 release, CyDFa stimulated with cynomolgus IL-1β [8] [nM] | Kd [9] [nM] | Kd [10] [nM] | binding result [11] | binding result [12] | EC50 (read off the curve) [13] [nM] | EC50 (read off the curve) [14] [nM] | Binder | other results
1 | 0.221 | 0.184 | ~1 | ~1 | ~1 | – | – | – | – | – | – | – | – | – | – | – | – | – | – | – | 1A05_rbh_FabCys-AviH (Fab, V domains shown, Tested as disulphide-linked Fab with Avi and His tags; also called 1A05 in FabCys-AviHis format; 1A05 (R001032)) VH: LEQSGGGAEGGLVKPGGSLELCCKASGFSLSTSYWRCWVRQAPGKGLEWIGCIYAGSGDVTYYANWVNGRFTLSRDIDQSTGCLQLNSLTAADTAMYYCASGVGFGYFNLWGQGTLVTVSS VL: ALVMTQTPSPVSAAVGGTVTINCQASEDIYSNLAWFQQKPGQPPKLLIYDASTLASGVPSRFSGSGSGTEFTLTISGLQSDDAATYYCLGVYTHISADNAFGGGTEVVVKR | IC50 (read off the curve) [4]: ~1 nM
2 | – | – | – | – | – | 5.2 | 0.69 | 20 | 0.025 | 0.033 | 0.022 | 19 | 0.029 | 0.12 | 0.004 | 0.004 | no binding (tested: 2e-7 M) | no binding (tested: 2e-7 M) | ~3 | 0.1 to 0.2 | Y024084_h_IgG1f_AEASS (antibody, V domains shown, also called Morphosys 24084; Mor Y024084) VH: QVQLVQSGAEVKKPGASVKVSCKASGYTFTSYYMHWVRQAPGQGLEWMGIINPSGGSTSYAQKFQGRVTMTRDTSTSTVYMELSSLRSEDTAVYYCARGFVTSGIDYWGQGTLVTVSS VL: QSVLTQPPSVSAAPGQKVTISCSGSSSNIGNNYVSWYQQLPGTAPKLLIYDNNKRPSGIPDRFSGSKSGTSATLGITGLQTEDEADYYCQTWTYTGRLWIVFGGGTKLTVLG | EC50 (read off the curve) [15]: 0.1 to 0.2 nM
3 | – | – | – | – | – | 1.2 | 0.72 | 1.2 | 0.014 | 0.039 | 0.042 | 35 | 0.2 | 0.043 | 0.002 | 0.001 | no binding (tested: 2e-7 M) | no binding (tested: 2e-7 M) | ~6 | 0.1 to 0.2 | Y024148_h_IgG1f_AEASS (antibody, V domains shown, Human IgG1f with AEASS effector-silencing residues, kappa light chain) VH: EVQLVESGGGLVQPGGSLRLSCAASGGTIGGSAVHWVRQAPGKGLVWVSRILTYSSTTQYAESVKGRFTISRDNAKNTLYLQMNSLRAEDTAVYYCARGSSEYPKFDIWGQGTLVTVSS VL: DIQMTQSPSTLSASVGDRVTITCRASQSISSWLAWYQQKPGKAPKLLIYDASSLESGVPSRFSGSGSGTEFTLTISSLQPEDFATYYCHQLLIYPHTFGQGTKVEIKR | binding result [16]: no binding; fold stronger KD than reference R001031 (CAN04) [17]: ~10.5 fold; fold stronger KD than reference R001032 (1A05) [17]: ~5.5 fold; fold stronger KD than reference R001031 (CAN04) [18]: ~16 fold; fold stronger KD than reference R001032 (1A05) [18]: ~15 fold; binding result [19]: no binding (tested: 200 nM); EC50 (read off the curve) [15]: 0.1 to 0.2 nM
4 | – | – | – | – | – | 4.6 | 0.82 | 22 | 0.18 | 0.28 | 0.24 | 670 | 1.98 | 1 | 0.003 | 0.003 | – | – | – | – | h11C5 YKD (antibody, human IgG1, kappa, V domains shown, Variable domains of h11C5 YKD on the same modified IgG1 kappa constant regions (AEASS); Printed as 'h1105' in much of the text; also called h1105) VH: EVQLVESGGGLVQPGGSLRLSCAASGFTFSNYAMSWVRQAPGKGLEWVATVTEGGDYNYYLDDVKGRFTISRDNAKNSLYLQMNSLRAEDTAVYYCARDDWPYFFDYWGQGTLVTVSS VL: DIQMTQSPSSLSASVGDRVTITCRASENIYSNLAWYQQKPGKSPKLLVYGYKNLADVPSRFSGSGSGTDYTLTISSLQPEDFATYYCQHFKTTPRTFGGGTKVEIKR | –
5 | – | – | – | – | – | 3.5 | 1.3 | 3.6 | 0.019 | 0.024 | 0.008 | 18 | 0.02 | 1 | 0.021 | 0.016 | no binding (tested: 2e-7 M) | no binding (tested: 2e-7 M) | ~3 | – | R001031 (CAN04) (antibody, human IgG1, kappa, V domains shown, Variable domains of prior art CAN04 on human IgG1 kappa constant regions with AEASS) VH: QVQLVQSGAEVKKPGSSVKVSCKASGYAFSSSWMNWVRQAPGQGLEWMGRIYPGDGNTHYAQKFQGRVTLTADKSTSTAYMELSSLRSEDTAVYYCGEGYLDPMDYWGQGTLVTVSS VL: DIQMTQSPSSLSASVGDRVTITCSASQGINNYLNWYQQKPGKAPKLLIHYTSGLHAGVPSRFSGSGSGTDYTLTISSLQPEDVATYYCQQYSILPWTFGGGTKVEIKR | –
6 | 0.167 | 0.128 | ~1 | ~2 | ~1 | – | – | – | – | – | – | – | – | – | – | – | – | – | – | – | CAN04_h_FabCys-AviH (Fab, V domains shown, Tested as disulphide-linked Fab with Avi and His tags; also called CAN04 in FabCys-AviHis format; CAN04 (R001031)) VH: QVQLVQSGAEVKKPGSSVKVSCKASGYAFSSSWMNWVRQAPGQGLEWMGRIYPGDGNTHYAQKFQGRVTLTADKSTSTAYMELSSLRSEDTAVYYCGEGYLDPMDYWGQGTLVTVSS VL: DIQMTQSPSSLSASVGDRVTITCSASQGINNYLNWYQQKPGKAPKLLIHYTSGLHAGVPSRFSGSGSGTDYTLTISSLQPEDVATYYCQQYSILPWTFGGGTKVEIKR | –
